Experimental findings from patent publication US20190314470A1 (UNITED STATES GOVERNMENT AS REPRESENTED BY THE DEPARTMENT …, published 2019) are described below.

This test concerns the target T1, K-RAS protein (recombinant, abcam) (UniProt P01116-2 1-188, limits assumed).
T1 construct: Bought recombinant protein used in solution in the far western; One partner was labelled with the cysteine-reactive dye NT-647
The test can be described thus: quantification of the anti-RAS far western of FIG. 2E; two VAMP3 preparations.

Method: Far Western Blotting. […] The membrane was then washed in 5% milk in TBST and incubated with horseradish peroxidase (HRP)-conjugated secondary antibody for 1 hr at RT. The membrane was then developed using the SuperSignal West Dura reagent (ThermoFischer). Quantification was done using ImageJ. For loading controls, duplicate membranes were spotted and immediately stained with a Coomassie Stain Kit (Biorad).

B1: VAMP3 (recombinant, LSbiosciences / MyBiosource) (other, UniProt Q15836 1-77, looked up)
chain: MSTGPTAATGSNRRLQQTQNQVDEVVDIMRVNVDKVLERDQKLSELDDRADALQAGASQFETSAAKLKRKYWWKNCK
notes: Two commercial preparations were spotted in the far western; also called vesicle-associated membrane protein 3
On to B1, for which the binding result is recorded as “no binding (tested: 2 µg spotted)”.
